Biological target: K151Q/R mutants
Assay: split reporter (BiFC, NanoBiT); split-luciferase complementation; HEK293T cells co-transfected with NLuc-mCRY1 (wild-type or mutant) and a CLuc fusion of the partner; bioluminescence read 24 h after transfection in DMEM with 100 uM D-luciferin

Sequence of CLuc-BMAL1 (Q9WTL8 whole entry): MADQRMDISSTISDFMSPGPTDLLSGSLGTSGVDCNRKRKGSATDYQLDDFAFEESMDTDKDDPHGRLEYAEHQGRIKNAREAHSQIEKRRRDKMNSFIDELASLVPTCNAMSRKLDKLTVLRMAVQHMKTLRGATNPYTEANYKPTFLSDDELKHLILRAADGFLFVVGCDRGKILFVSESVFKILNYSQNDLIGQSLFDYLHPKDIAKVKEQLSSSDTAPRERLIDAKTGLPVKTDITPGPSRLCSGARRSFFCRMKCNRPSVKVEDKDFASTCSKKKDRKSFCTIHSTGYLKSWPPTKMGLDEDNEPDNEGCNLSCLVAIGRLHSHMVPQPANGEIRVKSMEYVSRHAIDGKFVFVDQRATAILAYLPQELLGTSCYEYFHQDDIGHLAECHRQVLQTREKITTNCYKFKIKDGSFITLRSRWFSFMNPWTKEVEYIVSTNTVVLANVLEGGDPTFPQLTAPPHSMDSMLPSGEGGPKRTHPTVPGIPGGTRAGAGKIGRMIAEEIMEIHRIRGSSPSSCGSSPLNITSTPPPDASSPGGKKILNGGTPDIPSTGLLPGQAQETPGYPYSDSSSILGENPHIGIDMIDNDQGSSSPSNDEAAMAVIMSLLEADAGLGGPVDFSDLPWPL

Q: How did the binding rate, percent of the wild type (% of the wild type) turn out when “CLuc-BMAL1 (from UniProt Q9WTL8 1-632) (natural protein)” was run?
A: 50 to 60

Reference: publication PMC12386978
